Data reported in the supplement of paper PMC7877785.
± gives the uncertainty stated by the source.

Assay: self-splicing fitness, log relative to wild type (ln ratio); higher = more splicing; Tetrahymena group I intron in knt gene, E. coli kanamycin selection, DiMSum; sequences stand for … in CUCUCU…GGAGGGAAAAGUUAUCAGGCAUGCACCUGGUAGCUAGUCUUUAAACCAAUAGAUUGCAUCGGUUUAAAAGGCAAGACCGUCAAAUUGCGGGAAAGGGGUCAACAGCCGUUCAGUACCAAGUCUCAGGGGAAACUUUGAGAUGGCCUUGCAAAGGGUAUGGUAAUAAGCUGACGGACAUGGUCCUAACCACGCAGCCAAGUCCUAAGUCAACAGAUCUUCUGUUGAUAUGGAUGCAGUUCACAGACUAAAUGUCGGUCGGGGAAGAUGUAUUCUUCUCAUAAGAUAUAGUCGGACCUCUCCUUAAUGGGAGCUAGCGGAUGAAGUGAUGCAACACUGGAGCCGCUGGGAACUAAUUUGUAUGCGAAAGUAUAUUGAUUAGUUUUGGAGUACUCGUGGUCG
Procedure, shortened: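 Fitness was computed with DiMSum as the error-weighted combination of replicate fold changes, kanamycin versus none, each normalised to wild type. The library randomised all eight intron nucleotides of the P1ex region, with the intron placed in the knt kanamycin-resistance gene on pET-22b(+) in E. coli BL21(DE3). Six replicate transformations were grown overnight at 37°C or 30°C on LB agar with or without 25 μg/mL kanamycin, plus 100 μg/mL carbenicillin, 50 μM IPTG and 0.2% rhamnose. Pooled colonies were amplicon-sequenced on an Illumina HiSeq 2500.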

Sequence | self-splicing fitness (ln) (30 °C) | self-splicing fitness (ln) (37 °C)
AAAUAGCAAUAUUACGUUCU | -0.419 ± 0.069 | -0.584 ± 0.091
AAAUAGCAAUAUUACGUUUU | -2.81 ± 0.11 | -1.05 ± 0.099
AACAAGCAAUAUUACGAACA | -1.16 ± 0.11 | -0.392 ± 0.11
AACAAGCAAUAUUACGAACG | -1.33 ± 0.11 | -0.418 ± 0.13
AACAAGCAAUAUUACGACGU | 0.394 ± 0.063 | 0.441 ± 0.07
AACAAGCAAUAUUACGACUC | -0.216 ± 0.072 | 0.125 ± 0.097
AACAAGCAAUAUUACGAGUC | -3.19 ± 0.12 | -1.89 ± 0.14
AACAAGCAAUAUUACGAUAU | -1.42 ± 0.098 | -1.03 ± 0.12
AACAAGCAAUAUUACGAUCA | -0.766 ± 0.058 | -0.628 ± 0.078
AACAAGCAAUAUUACGCAAU | -1.37 ± 0.096 | -1.09 ± 0.12
AACAAGCAAUAUUACGCACU | 0.195 ± 0.069 | -0.195 ± 0.083
AACAAGCAAUAUUACGCAGC | -3.18 ± 0.16 | -2.53 ± 0.18
AACAAGCAAUAUUACGCGAG | -1.58 ± 0.072 | -0.559 ± 0.067
AACAAGCAAUAUUACGCUCC | -2.2 ± 0.12 | -0.601 ± 0.13
AACAAGCAAUAUUACGCUUC | -4.57 ± 0.3 | -2.75 ± 0.26
AACAAGCAAUAUUACGGAAC | -3.32 ± 0.16 | -1.73 ± 0.15
AACAAGCAAUAUUACGGCCA | -0.5 ± 0.077 | -0.412 ± 0.092
AACAAGCAAUAUUACGGCCG | -0.739 ± 0.12 | 0.121 ± 0.15
AACAAGCAAUAUUACGGGUG | -0.579 ± 0.047 | -0.604 ± 0.064
AACAAGCAAUAUUACGGGUU | -2.34 ± 0.11 | -2.91 ± 0.16
AACAAGCAAUAUUACGGUAA | -1.83 ± 0.1 | -1.04 ± 0.096
AACAAGCAAUAUUACGGUAU | -1.61 ± 0.075 | -1.16 ± 0.098
AACAAGCAAUAUUACGGUCC | -1.36 ± 0.063 | -0.282 ± 0.072
AACAAGCAAUAUUACGUACC | -1.03 ± 0.083 | 0.125 ± 0.13

Sequence | self-splicing fitness (ln) (30 °C) | self-splicing fitness (ln) (37 °C)
AACAAGCAAUAUUACGUCUU | -0.312 ± 0.057 | 0.0818 ± 0.077
AACAAGCAAUAUUACGUGCG | -1.17 ± 0.05 | -0.476 ± 0.064
AACAAGCAAUAUUACGUGGA | -2.59 ± 0.11 | -1.51 ± 0.094
AACAAGCAAUAUUACGUGUG | -1.69 ± 0.043 | -0.657 ± 0.05
AACCAGCAAUAUUACGAAAG | -3.21 ± 0.16 | -1.99 ± 0.19
AACCAGCAAUAUUACGAACU | -0.369 ± 0.079 | 0.35 ± 0.1
AACCAGCAAUAUUACGAAUA | -2.32 ± 0.13 | -1.71 ± 0.097
AACCAGCAAUAUUACGACGC | -0.537 ± 0.082 | -0.0547 ± 0.098
AACCAGCAAUAUUACGAGGA | -2.25 ± 0.13 | -1.51 ± 0.11
AACCAGCAAUAUUACGCAGG | -4.46 ± 0.2 | -2.28 ± 0.14
AACCAGCAAUAUUACGCCAA | -2.55 ± 0.14 | -1.67 ± 0.16
AACCAGCAAUAUUACGCUCG | -0.795 ± 0.075 | 0.274 ± 0.097
AACCAGCAAUAUUACGGACC | 0.38 ± 0.1 | -0.273 ± 0.11
AACCAGCAAUAUUACGGCCC | 0.0145 ± 0.12 | 0.0337 ± 0.099
AACCAGCAAUAUUACGGCGC | -0.046 ± 0.068 | -0.103 ± 0.086
AACCAGCAAUAUUACGGCUA | -0.197 ± 0.048 | 0.0992 ± 0.063
AACCAGCAAUAUUACGGGAA | -1.76 ± 0.073 | -1.01 ± 0.065
AACCAGCAAUAUUACGGGGC | -3.59 ± 0.16 | -2.64 ± 0.16
AACCAGCAAUAUUACGGGUC | -3.62 ± 0.13 | -2.68 ± 0.15
AACCAGCAAUAUUACGGUUU | -3.26 ± 0.12 | -2.96 ± 0.17
AACCAGCAAUAUUACGUAUC | -2.57 ± 0.097 | -1.39 ± 0.1
AACCAGCAAUAUUACGUCGC | -2.34 ± 0.077 | -0.689 ± 0.085
AACCAGCAAUAUUACGUGCC | -1.44 ± 0.063 | -0.956 ± 0.079
